Results: publication PMC9482650, “Quantitative fragmentomics allow affinity mapping of interactomes” (Nature Communications, 2022)

T1: APBA1_1, Q02410
T1 sequence (Q02410 651-752, limits assumed, looked up): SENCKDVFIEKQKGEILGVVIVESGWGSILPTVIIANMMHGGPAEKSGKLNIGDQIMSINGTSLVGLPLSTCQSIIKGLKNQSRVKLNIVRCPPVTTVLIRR

T2: APBA1_2, Q02410
T2 sequence (Q02410 742-832, limits assumed, looked up): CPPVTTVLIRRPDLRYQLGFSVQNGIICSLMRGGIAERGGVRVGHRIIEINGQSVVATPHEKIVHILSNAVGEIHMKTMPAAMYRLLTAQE

T3: GRIP1_2, Q9Y3R0
T3 sequence (Q9Y3R0 145-248, limits assumed, looked up): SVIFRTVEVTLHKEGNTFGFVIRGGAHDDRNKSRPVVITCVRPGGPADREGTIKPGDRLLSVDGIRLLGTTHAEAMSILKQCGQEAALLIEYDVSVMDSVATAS

T4: GRIP1_3, Q9Y3R0
T4 sequence (Q9Y3R0 247-346, limits assumed, looked up): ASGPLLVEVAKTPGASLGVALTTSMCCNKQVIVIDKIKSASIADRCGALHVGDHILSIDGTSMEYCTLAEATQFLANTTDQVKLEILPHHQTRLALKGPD

T5: GRIP1_4, Q9Y3R0
T5 sequence (Q9Y3R0 467-571, limits assumed, looked up): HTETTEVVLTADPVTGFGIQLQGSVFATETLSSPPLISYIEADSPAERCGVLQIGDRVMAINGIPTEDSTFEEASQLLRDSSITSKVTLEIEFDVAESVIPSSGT

T6: HTRA4, P83105
T6 sequence (P83105 378-476, limits assumed, looked up): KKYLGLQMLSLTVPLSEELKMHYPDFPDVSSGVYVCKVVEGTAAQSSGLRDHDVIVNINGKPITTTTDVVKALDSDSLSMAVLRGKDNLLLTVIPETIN

T7: LIN7A, O14910
T7 sequence (O14910 103-200, limits assumed, looked up): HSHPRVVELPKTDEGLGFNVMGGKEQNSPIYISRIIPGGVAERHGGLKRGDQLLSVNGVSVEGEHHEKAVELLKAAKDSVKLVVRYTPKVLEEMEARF

T8: LRRC7, Q96NW7
T8 sequence (Q96NW7 1440-1537, limits assumed, looked up): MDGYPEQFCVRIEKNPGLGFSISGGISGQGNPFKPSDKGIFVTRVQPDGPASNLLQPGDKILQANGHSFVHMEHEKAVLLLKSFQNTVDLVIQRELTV

T9: PARD3B_1, Q8TEW8
T9 sequence (Q8TEW8 196-299, limits assumed, looked up): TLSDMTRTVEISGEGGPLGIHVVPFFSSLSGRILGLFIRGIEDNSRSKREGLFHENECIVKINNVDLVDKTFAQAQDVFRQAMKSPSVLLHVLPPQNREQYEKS

T10: PCLO, Q9Y6V0
T10 sequence (Q9Y6V0 4491-4600, limits assumed, looked up): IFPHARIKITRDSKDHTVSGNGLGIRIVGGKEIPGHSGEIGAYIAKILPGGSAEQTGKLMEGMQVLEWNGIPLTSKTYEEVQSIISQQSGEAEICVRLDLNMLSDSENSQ

T11: TIAM2, Q8IVF5
T11 sequence (Q8IVF5 885-986, limits assumed, looked up): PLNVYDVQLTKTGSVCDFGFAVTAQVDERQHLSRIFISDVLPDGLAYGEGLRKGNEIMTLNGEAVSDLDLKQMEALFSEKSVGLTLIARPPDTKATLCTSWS


How the values were obtained:
Test in all cases: holdup assay
Design in all cases: key: below the threshold = too weak to quantify, mostly under pKd 3.1 to 4
Settings in all cases: plain residues with an end cap or a label only (N-terminal biotin on a linker: ado-ado)
APBA1_1, Q02410 = molecular target: T1, APBA1_1, Q02410
APBA1_2, Q02410 = molecular target: T2, APBA1_2, Q02410
ARHGEF12, Q9NZN5-2 = molecular target: ARHGEF12, Q9NZN5-2
Sequence of ARHGEF12, Q9NZN5-2 (Q9NZN5 other isoform, or with tags, fused parts or gaps): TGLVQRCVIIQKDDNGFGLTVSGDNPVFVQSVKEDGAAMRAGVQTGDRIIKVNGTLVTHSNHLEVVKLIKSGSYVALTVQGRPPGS

DLG2_2, Q15700 = molecular target: DLG2_2, Q15700
Sequence of DLG2_2, Q15700 (Q15700 189-283): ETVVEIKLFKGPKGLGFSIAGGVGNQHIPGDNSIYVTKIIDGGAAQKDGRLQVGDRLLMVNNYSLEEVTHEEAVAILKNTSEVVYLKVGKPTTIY

DLG5_1, Q8TDM6 = molecular target: DLG5_1, Q8TDM6
Sequence of DLG5_1, Q8TDM6 (Q8TDM6 617-713): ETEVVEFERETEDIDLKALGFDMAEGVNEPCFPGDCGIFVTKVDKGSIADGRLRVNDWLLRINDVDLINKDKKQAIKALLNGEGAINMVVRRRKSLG

FRMPD2_2, Q68DX3 = molecular target: FRMPD2_2, Q68DX3
Sequence of FRMPD2_2, Q68DX3 (Q68DX3 944-1038): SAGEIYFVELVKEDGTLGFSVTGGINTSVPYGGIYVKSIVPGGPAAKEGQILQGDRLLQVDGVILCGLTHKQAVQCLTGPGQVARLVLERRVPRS

GOPC, Q9HD26 = molecular target: GOPC, Q9HD26
GRIP1_2, Q9Y3R0 = molecular target: T3, GRIP1_2, Q9Y3R0
GRIP1_3, Q9Y3R0 = molecular target: T4, GRIP1_3, Q9Y3R0
GRIP1_4, Q9Y3R0 = molecular target: T5, GRIP1_4, Q9Y3R0
GRIP2_3, Q9C0E4 = molecular target: GRIP2_3, Q9C0E4
Sequence of GRIP2_3, Q9C0E4 (Q9C0E4 238-339): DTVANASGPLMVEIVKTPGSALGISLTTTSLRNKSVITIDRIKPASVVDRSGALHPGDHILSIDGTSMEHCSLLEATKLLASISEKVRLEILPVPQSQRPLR

HTRA4, P83105 = molecular target: T6, HTRA4, P83105
Inadl_2, Q8NI35 = molecular target: Inadl_2, Q8NI35
Sequence of Inadl_2, Q8NI35 (Q8NI35 238-335): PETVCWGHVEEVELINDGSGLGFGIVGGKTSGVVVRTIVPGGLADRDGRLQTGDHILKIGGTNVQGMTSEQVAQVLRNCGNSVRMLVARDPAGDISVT

Inadl_8, Q8NI35 = molecular target: Inadl_8, Q8NI35
Sequence of Inadl_8, Q8NI35 (Q8NI35 1425-1530): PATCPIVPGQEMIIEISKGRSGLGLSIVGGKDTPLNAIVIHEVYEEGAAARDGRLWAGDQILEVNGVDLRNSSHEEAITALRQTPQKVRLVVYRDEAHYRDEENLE

Inadl_9, Q8NI35 = molecular target: Inadl_9, Q8NI35
Sequence of Inadl_9, Q8NI35 (Q8NI35 1530-1615): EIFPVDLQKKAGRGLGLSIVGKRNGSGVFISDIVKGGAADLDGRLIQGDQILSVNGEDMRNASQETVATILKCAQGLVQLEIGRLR

LIN7A, O14910 = molecular target: T7, LIN7A, O14910
LRRC7, Q96NW7 = molecular target: T8, LRRC7, Q96NW7
MAGI2_2, Q86UL8 = molecular target: MAGI2_2, Q86UL8
Sequence of MAGI2_2, Q86UL8 (Q86UL8 410-522): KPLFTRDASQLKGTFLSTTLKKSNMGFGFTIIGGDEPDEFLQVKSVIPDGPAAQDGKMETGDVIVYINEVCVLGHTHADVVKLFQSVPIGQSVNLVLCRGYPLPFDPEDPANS

NHERF2_2, Q15599 = molecular target: NHERF2_2, Q15599
Sequence of NHERF2_2, Q15599 (Q15599 142-238): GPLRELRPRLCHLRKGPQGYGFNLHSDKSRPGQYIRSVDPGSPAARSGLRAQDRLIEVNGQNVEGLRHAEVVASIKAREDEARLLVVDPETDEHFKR

NOS1, P29475 = molecular target: NOS1, P29475
Sequence of NOS1, P29475 (P29475 9-101): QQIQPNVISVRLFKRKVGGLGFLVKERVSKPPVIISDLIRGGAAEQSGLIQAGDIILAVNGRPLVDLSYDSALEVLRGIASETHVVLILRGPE

PARD3B_1, Q8TEW8 = molecular target: T9, PARD3B_1, Q8TEW8
PARD3_3, Q8TEW0 = molecular target: PARD3_3, Q8TEW0
Sequence of PARD3_3, Q8TEW0 (Q8TEW0 582-685): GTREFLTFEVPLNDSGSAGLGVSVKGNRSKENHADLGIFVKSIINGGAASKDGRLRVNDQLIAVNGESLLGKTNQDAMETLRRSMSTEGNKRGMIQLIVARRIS

PCLO, Q9Y6V0 = molecular target: T10, PCLO, Q9Y6V0
PDZRN4_1, Q6ZMN7 = molecular target: PDZRN4_1, Q6ZMN7
Sequence of PDZRN4_1, Q6ZMN7 (Q6ZMN7 213-318): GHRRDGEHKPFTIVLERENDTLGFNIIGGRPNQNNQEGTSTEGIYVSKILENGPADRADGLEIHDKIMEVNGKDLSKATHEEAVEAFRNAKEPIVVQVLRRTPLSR

PICK1, Q9NRD5 = molecular target: PICK1, Q9NRD5
Sequence of PICK1, Q9NRD5 (Q9NRD5 17-115): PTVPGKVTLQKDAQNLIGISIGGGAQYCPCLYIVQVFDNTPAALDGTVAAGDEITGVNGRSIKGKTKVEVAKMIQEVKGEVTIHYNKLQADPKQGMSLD

TIAM2, Q8IVF5 = molecular target: T11, TIAM2, Q8IVF5

| Binder | pKd (APBA1_1, Q02410) | pKd (APBA1_2, Q02410) | pKd (ARHGEF12, Q9NZN5-2) | pKd (DLG2_2, Q15700) | pKd (DLG5_1, Q8TDM6) | pKd (FRMPD2_2, Q68DX3) | pKd (GOPC, Q9HD26) | pKd (GRIP1_2, Q9Y3R0) | pKd (GRIP1_3, Q9Y3R0) | pKd (GRIP1_4, Q9Y3R0) | pKd (GRIP2_3, Q9C0E4) | pKd (HTRA4, P83105) | pKd (Inadl_2, Q8NI35) | pKd (Inadl_8, Q8NI35) | pKd (Inadl_9, Q8NI35) | pKd (LIN7A, O14910) | pKd (LRRC7, Q96NW7) | pKd (MAGI2_2, Q86UL8) | pKd (NHERF2_2, Q15599) | pKd (NOS1, P29475) | further results |
| --- | --- | --- | --- | --- | --- | --- | --- | --- | --- | --- | --- | --- | --- | --- | --- | --- | --- | --- | --- | --- | --- |
| DPAESMESLV [PTPRG, P23470] | below the threshold | below the threshold | below the threshold | 4.68 | below the threshold | 4.54 | below the threshold | below the threshold | below the threshold | below the threshold | below the threshold | 3.83 | 3.5 | below the threshold | 3.73 | 3.7 | below the threshold | 4.24 | below the threshold | 3.74 | pKd (PARD3B_1, Q8TEW8): below the threshold; pKd (PARD3_3, Q8TEW0): 3.93; pKd (PCLO, Q9Y6V0): below the threshold; pKd (PDZRN4_1, Q6ZMN7): 3.72; pKd (PICK1, Q9NRD5): 4.13; pKd (TIAM2, Q8IVF5): below the threshold |
| EIPAQSPTCV [FZD10, Q9ULW2] | below the threshold | 4.77 | 3.91 | 3.89 | 3.71 | 3.74 | 3.94 | 3.67 | below the threshold | 3.64 | 3.61 | 4.29 | 3.58 | 4.35 | 4.6 | 3.48 | below the threshold | 4.17 | 3.81 | 4.17 | pKd (PARD3B_1, Q8TEW8): below the threshold; pKd (PARD3_3, Q8TEW0): 3.65; pKd (PCLO, Q9Y6V0): 3.47; pKd (PDZRN4_1, Q6ZMN7): 3.63; pKd (PICK1, Q9NRD5): 3.51; pKd (TIAM2, Q8IVF5): 3.7 |
| DFLSTFHIRI [CIB2, O75838] | 4.08 | below the threshold | below the threshold | below the threshold | below the threshold | below the threshold | below the threshold | below the threshold | below the threshold | 3.9 | below the threshold | 3.91 | below the threshold | below the threshold | 3.66 | below the threshold | below the threshold | below the threshold | below the threshold | below the threshold | pKd (PARD3B_1, Q8TEW8): 4.68; pKd (PARD3_3, Q8TEW0): 4.28; pKd (PCLO, Q9Y6V0): below the threshold; pKd (PDZRN4_1, Q6ZMN7): below the threshold; pKd (PICK1, Q9NRD5): below the threshold; pKd (TIAM2, Q8IVF5): 4.59 |
| TISFTQTSQF [SLC1A1, P43005] | below the threshold | below the threshold | 3.79 | below the threshold | below the threshold | below the threshold | below the threshold | below the threshold | below the threshold | below the threshold | below the threshold | below the threshold | below the threshold | below the threshold | below the threshold | below the threshold | below the threshold | below the threshold | 4.42 | 3.53 | pKd (PARD3B_1, Q8TEW8): 4.24; pKd (PARD3_3, Q8TEW0): below the threshold; pKd (PCLO, Q9Y6V0): below the threshold; pKd (PDZRN4_1, Q6ZMN7): below the threshold; pKd (PICK1, Q9NRD5): below the threshold; pKd (TIAM2, Q8IVF5): 4.14 |
| PSHPRLQTHV [KIRREL2, Q6UWL6] | below the threshold | 3.74 | 4.26 | 4.28 | below the threshold | below the threshold | below the threshold | below the threshold | below the threshold | below the threshold | below the threshold | 3.6 | below the threshold | 3.61 | below the threshold | below the threshold | below the threshold | 4.82 | below the threshold | below the threshold | pKd (PARD3B_1, Q8TEW8): below the threshold; pKd (PARD3_3, Q8TEW0): below the threshold; pKd (PCLO, Q9Y6V0): below the threshold; pKd (PDZRN4_1, Q6ZMN7): below the threshold; pKd (PICK1, Q9NRD5): below the threshold; pKd (TIAM2, Q8IVF5): 3.73 |
| NVYGIESVKI [GRIA2, P42262] | 3.52 | 3.68 | 3.59 | 3.5 | 3.59 | below the threshold | below the threshold | below the threshold | below the threshold | below the threshold | below the threshold | 3.74 | below the threshold | below the threshold | below the threshold | below the threshold | 3.49 | below the threshold | 3.71 | 3.71 | pKd (PARD3B_1, Q8TEW8): 5.1; pKd (PARD3_3, Q8TEW0): 3.78; pKd (PCLO, Q9Y6V0): below the threshold; pKd (PDZRN4_1, Q6ZMN7): below the threshold; pKd (PICK1, Q9NRD5): below the threshold; pKd (TIAM2, Q8IVF5): 4.21 |
